According to patent US20260266848A1, “COMPOSITIONS AND METHODS FOR DIAGNOSING AND TREATING DYSTONIA” (Duke University, priority 2023, published 2026):

Key:
WT MEF EVs = experiment: Quantitative LC-MS/MS proteomics of EVs from ISRIB-treated WT MEF cultures; type: cell-based, mouse; design: key to ISRIB and DYT Parallel Direction / ISRIB and DYT Parallel Direction, Ctdsp1 / ISRIB and DYT Parallel Direction, Pcdh19 / ISRIB and DYT Parallel Direction, Tspan7 / ISRIB and DYT Parallel Direction, Myo1e / ISRIB and DYT Parallel Direction, Plpp3 / ISRIB and DYT Parallel Direction, Sh3bp4 / ISRIB and DYT Parallel Direction, Dnajc7 / ISRIB and DYT Parallel Direction, Drg1 / ISRIB and DYT Parallel Direction, Maea: YES = protein abundance effect similar to DYT/WT; conditions: EV protein abundance; for WT + ISRIB/WT Cohen's d: ISRIB-treated WT vs WT; for ISRIB and DYT Parallel Direction: WT + ISRIB vs WT, direction compared with DYT/WT
DYT-TOR1A MEF EVs = experiment: Quantitative LC-MS/MS proteomics of EVs from drug-treated DYT-TOR1A MEF cultures (ritonavir, salubrinal); type: cell-based, mouse; design: key to RTV Corrective Direction / RTV Corrective Direction, Grwd1 / RTV Corrective Direction, Srrm2 / RTV Corrective Direction, Rbm17 / RTV Corrective Direction, Dcaf8 / RTV Corrective Direction, Edil3 / RTV Corrective Direction, Timp3 / RTV Corrective Direction, Heatr3 / RTV Corrective Direction, Brd4 / RTV Corrective Direction, P3h4 / RTV Corrective Direction, Pacsin3 / RTV Corrective Direction, Naa50 / RTV Corrective Direction, Lpar6 / RTV Corrective Direction, Ndrg1 / RTV Corrective Direction, Kntc1 / RTV Corrective Direction, Cdk11b / RTV Corrective Direction, Sumo1 / RTV Corrective Direction, Lsm4 / RTV Corrective Direction, Hmga2 / RTV Corrective Direction, Cstf1 / RTV Corrective Direction, Tes / RTV Corrective Direction, Sbno1 / RTV Corrective Direction, Unc119b / RTV Corrective Direction, Cfdp1 / RTV Corrective Direction, Sec61b: YES = protein abundance effect opposite to DYT/WT; conditions: EV protein abundance; for RTV Corrective Direction: DYT + RTV (ritonavir) vs DYT, direction compared with DYT/WT; for DYT + RTV/DYT Cohen's d: ritonavir (RTV)-treated DYT vs DYT

| Molecule | WT + ISRIB/WT Cohen's d (WT MEF EVs) | ISRIB and DYT Parallel Direction (WT MEF EVs) | RTV Corrective Direction (DYT-TOR1A MEF EVs) | DYT + RTV/DYT Cohen's d (DYT-TOR1A MEF EVs) |
| --- | --- | --- | --- | --- |
| Pdia6 (protein, UniProt Q922R8 20-440, looked up) Protein disulfide-isomerase A6: LYSSSDDVIELTPSNFNREVIQSDGLWLVEFYAPWCGHCQRLTPEWKKAATALKDVVKVGAVNADKHQSLGGQYGVQGFPTIKIFGANKNKPEDYQGGRTGEAIVDAALSALRQLVKDRLGGRSGGYSSGKQGRGDSSSKKDVVELTDDTFDKNVLDSEDVWMVEFYAPWCGHCKNLEPEWAAAATEVKEQTKGKVKLAAVDATVNQVLASRYGIKGFPTIKIFQKGESPVDYDGGRTRSDIVSRALDLFSDNAPPPELLEIINEDIAKKTCEEHQLCVVAVLPHILDTGAAGRNSYLEVLLKLADKYKKKMWGWLWTEAGAQYELENALGIGGFGYPAMAAINARKMKFALLKGSFSEQGINEFLRELSFGRGSTAPVGGGSFPTITPREPWDGKDGELPVEDDIDLSDVELDDLEKDEL | −1.84 | YES | YES | 3.27 |
| Mcm2 (protein, UniProt P97310 2-904, looked up) DNA replication licensing …: AESSESLSASSPARQRRRISDPLTSSPGRSSRRADALTSSPGRDLPPFEDESEGLLGTEGPMEEEEDGEELIGDGMERDYRPIPELDVYEAEGLALDDEDVEELTASQREAAERTMRQRDREAGRGLGRMRRGLLYDSSEEDEERPARKRRHVERATEDGEEDEEMIESIENLEDLKGHSVREWVSMAGPRLEIHHRFKNFLRTHVDSHGHNVFKERISDMCKENRESLVVNYEDLAAREHVLAYFLPEAPAELLQIFDEAALEVVLAMYPKYDRITNHIHVRISHLPLVEELRSLRQLHLNQLIRTSGVVTSCTGVLPQLSMVKYNCSKCNFVLGPFCQSQNQEVKPGSCPECQSAGPFEINMEETIYQNYQRIRIQESPGKVAAGRLPRSKDAILLADLVDSCKPGDEIELTGIYHNNYDGSLNTANGFPVFATIILANHVAKKDNKVAVGELTDEDVKMITGLSKDQQIGEKIFASIAPSIYGHEDIKRGLALALFGGEPKNPGGKHKVRGDINVLLCGDPGTAKSQFLKYIEKVSSRAIFTTGQGASAVGLTAYVQRHPVSREWTLEAGALVLADRGVCLIDEFDKMNDQDRTSIHEAMEQQSISISKAGIVTSLQARCTVIAAANPIGGRYDPSLTFSENVDLTEPIISRFDVLCVVRDTVDPVQDEMLARFVVGSHVRHHPSNKKDEGLTNGGTLEPAMPNTYGVEPLPQEVLKKYIIYAKERVRPKLNQMDQDKVARMYSDLRKESMATGSIPITVRHIESMIRMAEAHARMHLRDYVMEDDVNMAIRVMMESFIDTQKFSVMRSMRKTFARYLSFRRDNNDLLLFILKQLVAEQVTYQRNRFGAQQDTIEIPEKDLMDKARQINIHNLSAFYDSDLFKFNKFSRDLKRKLILQQF | −2.10 | YES | YES | 3.96 |
| Ddr2 (protein, UniProt Q62371 22-854, looked up) Discoidin domain-containing …: KAQVNPAICRYPLGMSGGHIPDEDITASSQWSESTAAKYGRLDSEEGDGAWCPEIPVQPDDLKEFLQIDLRTLHFITLVGTQGRHAGGHGIEFAPMYKINYSRDGSRWISWRNRHGKQVLDGNSNPYDVFLKDLEPPIVARFVRLIPVTDHSMNVCMRVELYGCVWLDGLVSYNAPAGQQFVLPGGSIIYLNDSVYDGAVGYSMTEGLGQLTDGVSGLDDFTQTHEYHVWPGYDYVGWRNESATNGFIEIMFEFDRIRNFTTMKVHCNNMFAKGVKIFKEVQCYFRSEASEWEPTAVYFPLVLDDVNPSARFVTVPLHHRMASAIKCQYHFADTWMMFSEITFQSDAAMYNNSGALPTSPMAPTTYDPMLKVDDSNTRILIGCLVAIIFILLAIIVIILWRQFWQKMLEKASRRMLDDEMTVSLSLPSESSMFNNNRSSSPSEQESNSTYDRIFPLRPDYQEPSRLIRKLPEFAPGEEESGCSGVVKPAQPNGPEGVPHYAEADIVNLQGVTGGNTYCVPAVTMDLLSGKDVAVEEFPRKLLAFKEKLGEGQFGEVHLCEVEGMEKFKDKDFALDVSANQPVLVAVKMLRADANKNARNDFLKEIKIMSRLKDPNIIRLLAVCITEDPLCMITEYMENGDLNQFLSRHEPLSSCSSDATVSYANLKFMATQIASGMKYLSSLNFVHRDLATRNCLVGKNYTIKIADFGMSRNLYSGDYYRIQGRAVLPIRWMSWESILLGKFTTASDVWAFGVTLWETFTFCQEQPYSQLSDEQVIENTGEFFRDQGRQIYLPQPALCPDSVYKLMLSCWRRETKHRPSFQEIHLLLLQQGAE | −7.89 | YES | YES | 0.93 |
| Srp68 (protein, UniProt Q8BMA6 1-625, looked up) Signal recognition particle …: MAAEKQIPGGGSGGGGSGSGGGGGGSGGGRSAGGDENKENERPSAGSKANKEFGDSLSLEILQIIKESQQQHGLRHGDFQRYRGYCSRRQRRLRKTLNFKMGNRHKFTGKKVTEELLTDNRYLLLVLMDAERAWSYAMQLKQEANTEPRKRFHLLSRLRKAVKHAEELERLCESNRVDAKTKLEAQAYTAYLSGMLRFEHQEWKSAIEAFNKCKTIYEKLASAFTEEQAVLYNQRVEEISPNIRYCAYNIGDQSAINELMQMRLRSGGTEGLLAEKLEALITQTRAKQAATMSEVEWRGRTVPVKIDKVRIFLLGLADNEAAIVQAESEETKERLFESMLSECRDALQAVREELKPDQKQRDYALDGESGKVSNLQYLHSYLTYIKLSTAIRRNENMAKGLHRALLQQQPEDDSKRSPRPQDLIRLYDIILQNLVELLQLPGLEEDRTFQKEISLKTLVFKAYRCFFIAQSYVLVKKWSEALVLYDRVLKYANEVSSHGGASKNSLKDLPDVQELITQVRSEKCSLQAAAILDANDSHQTDTSSQVKDNTPLVERFESFCLDPSLVTKQANLVHFPPGFQPIPCKPLFFDLALNHVAFPPLEDKLEQKTKSGLTGYIKGIFGFRS | −1.21 | YES | YES | 2.70 |
| Add1 (protein, UniProt P35611 1-737, looked up) Alpha-adducin: MNGDSRAAVVTSPPPTTAPHKERYFDRVDENNPEYLRERNMAPDLRQDFNMMEQKKRVSMILQSPAFCEELESMIQEQFKKGKNPTGLLALQQIADFMTTNVPNVYPAAPQGGMAALNMSLGMVTPVNDLRGSDSIAYDKGEKLLRCKLAAFYRLADLFGWSQLIYNHITTRVNSEQEHFLIVPFGLLYSEVTASSLVKINLQGDIVDRGSTNLGVNQAGFTLHSAIYAARPDVKCVVHIHTPAGAAVSAMKCGLLPISPEALSLGEVAYHDYHGILVDEEEKVLIQKNLGPKSKVLILRNHGLVSVGESVEEAFYYIHNLVVACEIQVRTLASAGGPDNLVLLNPEKYKAKSRSPGSPVGEGTGSPPKWQIGEQEFEALMRMLDNLGYRTGYPYRYPALREKSKKYSDVEVPASVTGYSFASDGDSGTCSPLRHSFQKQQREKTRWLNSGRGDEASEEGQNGSSPKSKTKWTKEDGHRTSTSAVPNLFVPLNTNPKEVQEMRNKIREQNLQDIKTAGPQSQVLCGVVMDRSLVQGELVTASKAIIEKEYQPHVIVSTTGPNPFTTLTDRELEEYRREVERKQKGSEENLDEAREQKEKSPPDQPAVPHPPPSTPIKLEEDLVPEPTTGDDSDAATFKPTLPDLSPDEPSEALGFPMLEKEEEAHRPPSPTEAPTEASPEPAPDPAPVAEEAAPSAVEEGAAADPGSDGSPGKSPSKKKKKFRTPSFLKKSKKKSDS | 0.00 | YES | YES | 4.30 |
| Capg (protein, UniProt P24452 1-352, looked up) Macrophage-capping protein: MYTPIPQSGSPFPASVQDPGLHIWRVEKLKPVPIARESHGIFFSGDSYLVLHNGPEEASHLHLWIGQQSSRDEQGACAVLAVHLNTLLGERPVQHREVQGNESDLFMSYFPRGLKYYREGGVESAFHKTTSGARGAAIRKLYQVKGKKNIRATERPLSWDSFNTGDCFILDLGQNIFAWCGGKSNILERNKARDLALAIRDSERQGKAQVEIITDGEEPAEMIQVLGPKPALKEGNPEEDITADQTRPNAQAAALYKVSDATGQMNLTKVADSSPFASELLIPDDCFVLDNGLCAQIYIWKGRKANEKERQAALQVADGFISRMRYSPNTQVEILPQGRESPIFKQFFKNWK | −0.61 | YES | YES | 3.57 |
| Aco1 (protein, UniProt P28271 1-889, looked up) Cytoplasmic aconitate …: MKNPFAHLAEPLDAAQPGKRFFNLNKLEDSRYGRLPFSIRVLLEAAVRNCDEFLVKKNDIENILNWNVMQHKNIEVPFKPARVILQDFTGVPAVVDFAAMRDAVKKLGGNPEKINPVCPADLVIDHSIQVDFNRRADSLQKNQDLEFERNKERFEFLKWGSQAFCNMRIIPPGSGIIHQVNLEYLARVVFDQDGCYYPDSLVGTDSHTTMIDGLGVLGWGVGGIEAEAVMLGQPISMVLPQVIGYKLMGKPHPLVTSTDIVLTITKHLRQVGVVGKFVEFFGPGVAQLSIADRATIANMCPEYGATAAFFPVDEVSIAYLLQTGREEDKVKHIQKYLQAVGMFRDFNDTSQDPDFTQVVELDLKTVVPCCSGPKRPQDKVAVSEMKKDFESCLGAKQGFKGFQVAPDRHNDRKTFLYSNSEFTLAHGSVVIAAITSCTNTSNPSVMLGAGLLAKKAVEAGLSVKPYIKTSLSPGSGVVTYYLRESGVMPYLSQLGFDVVGYGCMTCIGNSGPLPEPVVEAITQGDLVAVGVLSGNRNFEGRVHPNTRANYLASPPLVIAYAIAGTVRIDFEKEPLGVNAQGRQVFLKDIWPTRDEIQAVERQHVIPGMFKEVYQKIETVNKSWNALAAPSEKLYAWNPKSTYIKSPPFFESLTLDLQPPKSIVDAYVLLNLGDSVTTDHISPAGNIARNSPAARYLTNRGLTPREFNSYGSRRGNDAIMARGTFANIRLLNKFLNKQAPQTVHLPSGETLDVFDAAERYQQAGLPLIVLAGKEYGSGSSRDWAAKGPFLLGIKAVLAESYERIHRSNLVGMGVIPLEYLPGETADSLGLTGRERYTINIPEDLKPRMTVQIKLDTGKTFQAVMRFDTDVELTYFHNGGILNYMIRKMAQ | −1.03 | YES | YES | 3.33 |
